# Measurements: the supplement of paper PMC10598134
# ± gives the standard deviation.
# Experiment: collision cross section of modified peptide (TIMS, N2, iRT-aligned); higher = larger / more extended gas-phase ion
# Summary of the method: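 On a timsTOF Pro/HT (dda-PASEF, nitrogen, ~2.4 mbar), synthetic peptide pools were analysed after a 120-min nanoflow C18 separation at 60 °C and identified in MaxQuant. Three reference ions served for 1/K0 calibration, with run-wise alignment to the median iRT peptide deviation. Collision cross section comes from the Mason-Schamp equation, using the most abundant feature per charge state averaged over 1–3 technical replicates.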
# [1] = charge state: 2, modification: Butyryl
# [2] = charge state: 2, modification: Biotin
# [3] = charge state: 3, modification: Biotin
# [4] = charge state: 2, modification: Glutarylation
# [5] = charge state: 2, modification: Citrullination (R)
# [6] = charge state: 3, modification: Citrullination (R)
# [7] = charge state: 2, modification: GlyGly (K)
# [8] = charge state: 3, modification: GlyGly (K)
# [9] = charge state: 2, modification: hydroxyisobutyryl
# [10] = charge state: 2, modification: Succinyl
# [11] = charge state: 3, modification: hydroxyisobutyryl
# [12] = charge state: 2, modification: Nitro (Y)
sequence,measurement,setting,value
SGKFTQQDIDEAK [_SGK(Butyryl)FTQQDIDEAK_],collision cross section,[1],419.52 ± 1.7 Å²
ITGKNQVTATK [_ITGK(Crotonyl)NQVTATK_],collision cross section,"charge state: 2, modification: Crotonyl",369.54 ± 0.26 Å²
IGAEVYHHLK [_IGAEVY(Phospho (Y))HHLK_],collision cross section,"charge state: 2, modification: Phospho (Y)",385.73 ± 0.77 Å²
ASNAAVKLAESK [_ASNAAVK(Biotin)LAESK_],collision cross section,[2],402.96 ± 11 Å²
same,collision cross section,[3],464.87 Å²
TQDQISNIKYHEEFEK [_TQDQISNIK(Malonyl)YHEEFEK_],collision cross section,"charge state: 3, modification: Malonyl",548.96 ± 0.016 Å²
ANLEKAQAELVGTADEATR [_ANLEK(Biotin)AQAELVGTADEATR_],collision cross section,[2],492.92 Å²
LTEKELAEAASK [_LTEK(Gluratylation)ELAEAASK_],collision cross section,[4],395.13 ± 2.6 Å²
same,collision cross section,"charge state: 3, modification: Glutarylation",453.47 ± 1.2 Å²
GFGRGGAESHTFK [_GFGR(Citrullination (R))GGAESHTFK_],collision cross section,[5],413.94 ± 1 Å²
same,collision cross section,[6],465.74 ± 2.2 Å²
YIEIYVQKVNPSR [_YIEIYVQK(GlyGly (K))VNPSR_],collision cross section,[7],453.07 ± 1.4 Å²
same,collision cross section,[8],515.19 ± 0.35 Å²
VNALKNLQVK [_VNALK(hydroxyisobutyryl)NLQVK_],collision cross section,[9],374.85 ± 0.8 Å²
VFSIISSEKELK [_VFSIISSEK(Succinyl)ELK_],collision cross section,[10],409.2 ± 4.2 Å²
GTISAPGKVVTAAAQAK [_GTISAPGK(Succinyl)VVTAAAQAK_],collision cross section,[10],439.98 ± 0.51 Å²
same,collision cross section,"charge state: 3, modification: Succinyl",520.85 ± 1.6 Å²
SKHLQEQLNELK [_SK(hydroxyisobutyryl)HLQEQLNELK_],collision cross section,[9],425.52 ± 0.81 Å²
same,collision cross section,[11],492.58 ± 2.1 Å²
FGTINIVHPKLGSYTK [_FGTINIVHPK(hydroxyisobutyryl)LGSYTK_],collision cross section,[9],477.53 ± 1.6 Å²
same,collision cross section,[11],560.61 ± 2.1 Å²
DYSAPVNFISAGLKK [_DYSAPVNFISAGLK(GlyGly (K))K_],collision cross section,[7],449.5 ± 1.6 Å²
same,collision cross section,[8],532.12 ± 1.1 Å²
DLGKFQVATDALK [_DLGK(Butyryl)FQVATDALK_],collision cross section,[1],411.4 ± 0.85 Å²
LQAAYAGDKADDIQK [_LQAAYAGDK(Biotin)ADDIQK_],collision cross section,[2],449.09 ± 0.62 Å²
same,collision cross section,[3],511.95 ± 0.34 Å²
FLQEFYQDDELGKK [_FLQEFYQDDELGK(hydroxyisobutyryl)K_],collision cross section,[9],452.81 ± 0.81 Å²
same,collision cross section,[11],512.84 ± 1.6 Å²
GETASKLQSEISR [_GETASK(GlyGly (K))LQSEISR_],collision cross section,[7],415.57 ± 0.85 Å²
same,collision cross section,[8],455.84 ± 1.3 Å²
VNALKNLQVK [_VNALK(Biotin)NLQVK_],collision cross section,[2],393.86 ± 0.23 Å²
PGGLGSSSLYGLGASRPR [_PGGLGSSSLYGLGASR(Citrullination (R))PR_],collision cross section,[5],438.36 ± 0.2 Å²
same,collision cross section,[6],521.04 ± 1.9 Å²
IFDSEEILAGYK [_IFDSEEILAGY(Nitro (Y))K_],collision cross section,[12],395.88 ± 0.18 Å²
VFIGNLNTLVVKK [_VFIGNLNTLVVK(Malonyl)K_],collision cross section,"charge state: 2, modification: Malonyl",419.59 ± 0.57 Å²
VSPASSVDSNIPSSQGYKK [_VSPASSVDSNIPSSQGYK(Methyl (K))K_],collision cross section,"charge state: 2, modification: Methyl (K)",486.85 ± 1.2 Å²
same,collision cross section,"charge state: 3, modification: Methyl (K)",544.11 ± 0.42 Å²
FPGVGVLPGVPTGAGVKPK [_FPGVGVLPGVPTGAGVKP(Hydroxyproline)K_],collision cross section,"charge state: 2, modification: Hydroxyproline",440.08 ± 1.4 Å²
same,collision cross section,"charge state: 3, modification: Hydroxyproline",556.97 ± 11 Å²
AAQASDLEKIHLDEK [_AAQASDLEK(Acetyl (K))IHLDEK_],collision cross section,"charge state: 2, modification: Acetyl (K)",454.7 ± 2.5 Å²
same,collision cross section,"charge state: 3, modification: Acetyl (K)",495.59 ± 1.3 Å²
DLGKFQVATDALK [_DLGK(Gluratylation)FQVATDALK_],collision cross section,[4],414.3 ± 0.6 Å²
EEKPAVTAAPK [_EEKPAVT(HexNAc (ST))AAPK_],collision cross section,"charge state: 2, modification: HexNAc (ST)",383.27 ± 0.13 Å²
same,collision cross section,"charge state: 3, modification: HexNAc (ST)",484.12 ± 0.17 Å²
FDDTNPEKEEAK [_FDDTNPEK(Biotin)EEAK_],collision cross section,[2],416.55 ± 1.6 Å²
same,collision cross section,[3],504.96 ± 0.34 Å²
SYSVGASGSSSR [_SY(Nitro (Y))SVGASGSSSR_],collision cross section,[12],351.9 ± 1.2 Å²
RGVGAGAIAK [_R(Methyl (R))GVGAGAIAK_],collision cross section,"charge state: 2, modification: Methyl (R)",328.76 ± 0.75 Å²
SLEEEGAAHSGKR [_SLEEEGAAHSGK(Formyl)R_],collision cross section,"charge state: 2, modification: Formyl",409.43 ± 1.8 Å²
same,collision cross section,"charge state: 3, modification: Formyl",472.26 ± 2.9 Å²
